± gives the standard deviation.
Assay: collision cross section of unmodified peptide (TIMS, N2, iRT-aligned); higher = larger / more extended gas-phase ion
Method: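 Unmodified synthetic counterpart peptides (ProteomeTools / JPT), analysed by nanoLC-TIMS-QTOF (dda-PASEF). 1/K0 was aligned run-wise to spiked iRT peptides and converted to CCS in N2 (Mason-Schamp). Values are the mean of 1-3 technical replicates for the most abundant feature at each charge state. The same unmodified peptide is repeated across rows and is averaged.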

Row | Substance | collision cross section (charge state: 2) | collision cross section (charge state: 3)
1 | DSSPTTNSKLSALQR | 418.1 ± 2.2 Å² | 485.64 ± 4.2 Å²
2 | VDIDVPDVNIEGPDAKLK | 470.4 ± 2.9 Å² | 542.58 ± 2 Å²
3 | GPPGPPGRPGNSGIR | – | 436.52 ± 1.7 Å²
4 | LQAAYAGDKADDIQK | 429.74 ± 2.5 Å² | 497.53 ± 4.8 Å²
5 | PLRAASPFR | 352.16 ± 0.084 Å² | 447.55 ± 5.2 Å²
6 | TEVNSGFFYK | 366.57 ± 0.48 Å² | –
7 | IDLPAENSNSETIIITGKR | 488.02 Å² | 565.88 ± 0.52 Å²
8 | GEYFGEK | 311.09 ± 0.97 Å² | –
9 | RGATPPAPPR | 338.24 ± 0.44 Å² | 461.07 ± 2.4 Å²
10 | VMVAPISGSVTTGTK | 396.94 ± 0.14 Å² | –
11 | GDKGDAGEPGR | 331.44 ± 0.79 Å² | 419.58 ± 2 Å²
12 | DLSTVEALQNLKNLK | 472.99 ± 2.9 Å² | 543.69 ± 1.2 Å²
13 | VETTVTSLKTK | 379.41 ± 0.92 Å² | 459.8 ± 3.1 Å²
14 | TELLPGDRDNLAIQTR | – | 506.52 ± 0.86 Å²
15 | AAHGRGALAEAAR | 390.08 ± 0.35 Å² | 476.13 ± 1.3 Å²
16 | HHTLRQAPQPQSSLQR | – | 502.65 ± 0.69 Å²
17 | STLEEPNLQPLQR | 408.53 ± 0.66 Å² | –
18 | ESISVSSEQLAQFR | 416.66 ± 2.8 Å² | –
19 | IQTVPASHLQQGTASGSSK | – | 490.25 ± 12 Å²
20 | GEVGAGAGPGAQAGPSAKR | 436.7 ± 2.1 Å² | 469.26 ± 5.9 Å²
21 | FYTEDSPGLK | 352.82 ± 0.55 Å² | –
22 | APVGSVVSVPSQSSASSDK | 452.28 ± 0.77 Å² | –
23 | VDGDTQTTVEK | 367.05 ± 2.3 Å² | –

Row | Substance | collision cross section (charge state: 2) | collision cross section (charge state: 3)
24 | DYQPGITFIVVQKR | 447.74 ± 2 Å² | 520.02 ± 0.34 Å²
25 | SLFFGGKGAPLQR | 408.73 ± 1.1 Å² | 446.07 ± 3.4 Å²
26 | LEQVEKELLR | 383.51 ± 1.5 Å² | 455.22 ± 4.1 Å²
27 | GDRGEIGPPGPR | 366.43 ± 0.3 Å² | 425.03 ± 1.2 Å²
28 | GRGYFEHR | 340.02 ± 0.52 Å² | 409.47 ± 5.3 Å²
29 | FGTINIVHPKLGSYTK | 468.97 ± 3 Å² | 531.6 ± 4.8 Å²
30 | VLDSGAPIKIPVGPETLGR | 485.73 ± 3 Å² | 510.9 ± 2.1 Å²
31 | SVSSSSYR | 308.48 ± 0.73 Å² | –
32 | SVGGSGGGSFGDNLVTR | 413.69 ± 1.1 Å² | –
33 | VPGVGLPGVYPGGVLPGAR | 445.04 ± 0.9 Å² | 532.89 ± 0.34 Å²
34 | SFDEVEGVFGRGGGR | 414.68 ± 0.96 Å² | 509.8 ± 1.2 Å²
35 | SLGEPAAGEGSAKR | 397.19 ± 1.1 Å² | 478.87 ± 5.9 Å²
36 | LGVPGLPGYPGRQGPK | 416.71 ± 0.59 Å² | 493.33 ± 24 Å²
37 | SGGGYGGDRSSGGGYSGDR | – | 476.79 ± 0.56 Å²
38 | INNFSADIKDSK | 403.18 ± 2.5 Å² | 450.51 ± 4 Å²
39 | GRGTSQLAEGATAK | 389.78 ± 0.35 Å² | 463.88 ± 3.2 Å²
40 | GPPGPPGK | 285.24 ± 0.86 Å² | –
41 | DTPTSAGPNSFNKGK | 410.87 ± 2 Å² | 465.77 ± 5.4 Å²
42 | MTLSVLSR | 327.34 ± 0.14 Å² | –
43 | QQETAAAETETR | 373.98 ± 0.14 Å² | 456.85 ± 0.22 Å²
44 | VYSGHQGR | 325.3 ± 0.79 Å² | 409 ± 1.1 Å²
45 | GSYLGGYSAGRGIYSR | 455.17 Å² | 483.36 ± 2.1 Å²
46 | GLPGEPGPRGLLGPK | 406.63 ± 0.39 Å² | 459.1 ± 1.2 Å²

Row | Substance | collision cross section (charge state: 2) | collision cross section (charge state: 3)
47 | DLGKFQVATDALK | 413.55 ± 3.7 Å² | 498.11 ± 6.1 Å²
48 | LSEHATAPTR | 353.05 ± 0.78 Å² | 452.29 ± 0.22 Å²
49 | AQSYAQQLGR | 352.59 ± 0.74 Å² | –
50 | SYHLQIVTK | 344.3 ± 0.59 Å² | 447.43 ± 1.7 Å²
51 | LSTPPPLAEEEGLASR | 436.07 ± 0.65 Å² | 482.68 ± 0.86 Å²
52 | GPPGPAGPSGESR | 343.88 ± 1 Å² | –
53 | GGGFGAHGRGR | 350.63 ± 2.6 Å² | 420.87 ± 5.1 Å²
54 | VFIGNLNTLVVKK | 421.66 ± 1.2 Å² | 475.82 ± 2 Å²
55 | GRGTGEAEEEYVGPR | 410.08 ± 0.96 Å² | 491.56 ± 0.9 Å²
56 | LPEYPQVDDLLLR | 420.84 ± 0.76 Å² | –
57 | CYYGSDTAGR | 353.22 ± 1.1 Å² | –
58 | GAEKTEVAEPR | 369.12 ± 1.5 Å² | 445.67 ± 5 Å²
59 | IVNVSLADLR | 359.17 ± 0.57 Å² | –
60 | LSITGTYDLK | 371.61 ± 0.6 Å² | –
61 | EVVKPVPITSPAVSK | 412.92 ± 0.57 Å² | 534.95 ± 0.86 Å²
62 | LLIVSTTPYSEKDTK | 459.72 ± 2.9 Å² | 510.79 ± 5.4 Å²
63 | VELCSFSGYK | 358.19 ± 0.59 Å² | –
64 | DDSNLYINVK | 367.7 ± 0.74 Å² | –
65 | ASNAAVKLAESK | 381.6 ± 0.7 Å² | 452.24 ± 3.2 Å²
66 | LDLSSLAYSGK | 363.06 ± 1.2 Å² | –
67 | GHYTIGK | 315.37 ± 1.9 Å² | –
68 | TSAVSSQANSQPPVQVSVK | 457.25 ± 1.5 Å² | 542.62 ± 0.28 Å²
69 | GLQGPPGK | 292.79 ± 0.8 Å² | –

Row | Substance | collision cross section (charge state: 2) | collision cross section (charge state: 3)
70 | TPSSFRQPFTPTSR | – | 486.75 ± 0.79 Å²
71 | LSSETYSQAK | 348.96 ± 1.1 Å² | –
72 | AVSILPLLGHGVPRLPPGR | – | 563.87 ± 2.3 Å²
73 | GSELQNYFTK | 364.76 ± 0.54 Å² | –
74 | DDSFLGKLGGTLAR | 410.69 ± 1.4 Å² | 475.25 ± 2.7 Å²
75 | FHYQDQEFLK | 406.29 ± 0.68 Å² | 457.95 ± 1.7 Å²
76 | LQNSYQPTNK | 358.91 ± 0.48 Å² | –
77 | LQIASDENYK | 357.85 ± 0.48 Å² | –
78 | GYGVIFANGNR | 361.55 ± 0.6 Å² | –
79 | AIQLNPSYIR | 373.91 ± 2.8 Å² | –
80 | DSINFLDHINGKK | – | 459.87 ± 3.8 Å²
81 | FNALFAQGNYSEAAK | 435.05 ± 0.49 Å² | –
82 | GDQGEPGPSGNPGK | 342.01 ± 0.23 Å² | –
83 | GSAPPGPVPEGSIR | 377.29 ± 0.67 Å² | –
84 | AEGYEVAHGGR | 358.34 ± 0.55 Å² | 438.28 ± 0.89 Å²
85 | LGSPSGKTGTCR | 383.86 ± 1.2 Å² | 458.08 ± 4.7 Å²
86 | FDDTNPEKEEAK | 396.22 ± 1.8 Å² | 501.37 ± 2.2 Å²
87 | LLALSGPGGGRGR | 381.45 ± 1.3 Å² | 451.48 ± 1.9 Å²
88 | GQQGEPGPK | 313.75 ± 0.93 Å² | –
89 | PGPKGEAGPTGPQGEPGVR | 431.75 ± 0.38 Å² | 479.17 ± 5.1 Å²
90 | TEVLSPNSKVESK | 418.58 ± 2.2 Å² | 483.46 ± 5.8 Å²
91 | TQSFSLQER | 347.63 ± 0.14 Å² | –
92 | SQAGASELGPFSDPR | 396.36 ± 0.66 Å² | –

Row | Substance | collision cross section (charge state: 2) | collision cross section (charge state: 3)
93 | IYELAAGGTAVGTGLNTR | 443.72 ± 1 Å² | –
94 | FGYVDFESAEDLEK | 428.91 ± 0.24 Å² | –
95 | IPPTYQIR | 332.62 ± 0.59 Å² | –
96 | GFGRGGAESHTFK | 384.5 ± 0.2 Å² | 473.03 ± 1.3 Å²
97 | SGGYGGSRDYYSSR | 399.15 ± 1.2 Å² | 474.66 ± 1.4 Å²
98 | AQPQDSRGGSK | 349.19 ± 0.54 Å² | 421.45 ± 6.4 Å²
99 | GLATFPSRGAK | 368.08 ± 0.52 Å² | 445.97 ± 5.5 Å²
100 | VQFAPEKPGPQPSAETTR | – | 507.38 ± 9.7 Å²
101 | ASEALLKQLK | 367.26 ± 1.1 Å² | 459.21 ± 3.1 Å²
102 | KVQFAPEK | 329.36 ± 0.58 Å² | –
103 | TFGKAAGPSLSHTSGGTQSK | 462.76 ± 2.3 Å² | 520.05 ± 2.3 Å²
104 | STCTYVGAAK | 334.15 ± 0.48 Å² | –
105 | DNNNSNNRGSYNR | – | 461.19 ± 2.6 Å²
106 | SSGPGGQNVNKVNSK | 401.42 ± 1.8 Å² | 447.95 ± 4.2 Å²
107 | GEPGLPGHPGK | 338.84 ± 0.58 Å² | –
108 | PSVGSQSNQAGQGKR | 422.59 ± 2.3 Å² | 465.3 ± 4.2 Å²
109 | AIEINPDSAQPYK | 394.83 ± 1.7 Å² | –
110 | DASTLQSQKAEGTGDAK | 442.88 ± 2.3 Å² | 495.18 ± 2.5 Å²
111 | LGSASSSHGSIQESHK | – | 509.47 ± 1.3 Å²

Source: the supplement of paper PMC10598134
